According to the supplement of paper PMC7877785:
± gives the uncertainty stated by the source.

Assay: self-splicing fitness, log relative to wild type (ln ratio); higher = more splicing; Tetrahymena group I intron in knt gene, E. coli kanamycin selection, DiMSum; sequences stand for … in CUCUCU…GGAGGGAAAAGUUAUCAGGCAUGCACCUGGUAGCUAGUCUUUAAACCAAUAGAUUGCAUCGGUUUAAAAGGCAAGACCGUCAAAUUGCGGGAAAGGGGUCAACAGCCGUUCAGUACCAAGUCUCAGGGGAAACUUUGAGAUGGCCUUGCAAAGGGUAUGGUAAUAAGCUGACGGACAUGGUCCUAACCACGCAGCCAAGUCCUAAGUCAACAGAUCUUCUGUUGAUAUGGAUGCAGUUCACAGACUAAAUGUCGGUCGGGGAAGAUGUAUUCUUCUCAUAAGAUAUAGUCGGACCUCUCCUUAAUGGGAGCUAGCGGAUGAAGUGAUGCAACACUGGAGCCGCUGGGAACUAAUUUGUAUGCGAAAGUAUAUUGAUUAGUUUUGGAGUACUCGUGGUCG
Summary of the method: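 A randomised library covering all eight P1ex-region intron nucleotides was built with the intron in the knt kanamycin-resistance gene on pET-22b(+) and held in E. coli BL21(DE3). Cells were grown overnight at 37°C or 30°C on LB agar, with or without 25 μg/mL kanamycin, plus 100 μg/mL carbenicillin, 50 μM IPTG and 0.2% rhamnose, and pooled colonies were amplicon-sequenced on an Illumina HiSeq 2500. DiMSum fitness is the error-weighted combination of wild-type-normalised replicate fold changes, kanamycin versus none.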

UUGUAGCAAUAUUACGAAGU
self-splicing fitness (ln) (30 °C): -2.54 ± 0.28
self-splicing fitness (ln) (37 °C): -2.56 ± 0.48

UUGUAGCAAUAUUACGACGU
self-splicing fitness (ln) (30 °C): -1.48 ± 0.09
self-splicing fitness (ln) (37 °C): -0.671 ± 0.12

UUGUAGCAAUAUUACGAGCA
self-splicing fitness (ln) (30 °C): -1.49 ± 0.24
self-splicing fitness (ln) (37 °C): -0.799 ± 0.2

UUGUAGCAAUAUUACGAGCG
self-splicing fitness (ln) (30 °C): -1.01 ± 0.14
self-splicing fitness (ln) (37 °C): -0.454 ± 0.28

UUGUAGCAAUAUUACGAUCG
self-splicing fitness (ln) (30 °C): -1.06 ± 0.14
self-splicing fitness (ln) (37 °C): 0.103 ± 0.23

UUGUAGCAAUAUUACGAUCU
self-splicing fitness (ln) (37 °C): -2.38 ± 0.27

UUGUAGCAAUAUUACGCACG
self-splicing fitness (ln) (30 °C): -1.14 ± 0.11
self-splicing fitness (ln) (37 °C): -0.742 ± 0.13

UUGUAGCAAUAUUACGCAGG
self-splicing fitness (ln) (30 °C): -1.6 ± 0.24
self-splicing fitness (ln) (37 °C): 0.28 ± 0.17

UUGUAGCAAUAUUACGCUAG
self-splicing fitness (ln) (30 °C): -2.06 ± 0.22
self-splicing fitness (ln) (37 °C): -0.816 ± 0.21

UUGUAGCAAUAUUACGGGCU
self-splicing fitness (ln) (30 °C): -2.88 ± 0.29
self-splicing fitness (ln) (37 °C): -1.62 ± 0.22

UUGUAGCAAUAUUACGGGGA
self-splicing fitness (ln) (30 °C): -1.98 ± 0.26
self-splicing fitness (ln) (37 °C): -0.346 ± 0.17

UUGUAGCAAUAUUACGGGUG
self-splicing fitness (ln) (30 °C): -2.02 ± 0.11
self-splicing fitness (ln) (37 °C): -0.808 ± 0.096

UUGUAGCAAUAUUACGGGUU
self-splicing fitness (ln) (30 °C): -4.7 ± 0.34
self-splicing fitness (ln) (37 °C): -2.83 ± 0.3

UUGUAGCAAUAUUACGUAAA
self-splicing fitness (ln) (30 °C): -1.72 ± 0.22
self-splicing fitness (ln) (37 °C): -0.0948 ± 0.21

UUGUAGCAAUAUUACGUGAU
self-splicing fitness (ln) (30 °C): -3.14 ± 0.17
self-splicing fitness (ln) (37 °C): -1.01 ± 0.15

UUUAAGCAAUAUUACGACGU
self-splicing fitness (ln) (30 °C): -1.73 ± 0.15
self-splicing fitness (ln) (37 °C): -0.17 ± 0.15

UUUAAGCAAUAUUACGAGUU
self-splicing fitness (ln) (30 °C): -2.48 ± 0.17
self-splicing fitness (ln) (37 °C): -2.09 ± 0.17

UUUAAGCAAUAUUACGAUAG
self-splicing fitness (ln) (30 °C): -0.412 ± 0.096
self-splicing fitness (ln) (37 °C): -0.23 ± 0.097

UUUAAGCAAUAUUACGAUCU
self-splicing fitness (ln) (30 °C): -1.05 ± 0.1
self-splicing fitness (ln) (37 °C): -0.724 ± 0.13

UUUAAGCAAUAUUACGAUGU
self-splicing fitness (ln) (30 °C): -2.45 ± 0.14
self-splicing fitness (ln) (37 °C): -1.96 ± 0.18

UUUAAGCAAUAUUACGCCGG
self-splicing fitness (ln) (30 °C): -0.192 ± 0.089
self-splicing fitness (ln) (37 °C): 0.194 ± 0.11

UUUAAGCAAUAUUACGCCUU
self-splicing fitness (ln) (30 °C): -0.228 ± 0.34
self-splicing fitness (ln) (37 °C): -1.35 ± 0.36

UUUAAGCAAUAUUACGCGAC
self-splicing fitness (ln) (30 °C): -2.4 ± 0.18
self-splicing fitness (ln) (37 °C): -2.75 ± 0.22

UUUAAGCAAUAUUACGCGCG
self-splicing fitness (ln) (30 °C): 0.181 ± 0.12
self-splicing fitness (ln) (37 °C): -0.26 ± 0.14

UUUAAGCAAUAUUACGCGGA
self-splicing fitness (ln) (30 °C): -1.6 ± 0.098
self-splicing fitness (ln) (37 °C): -0.0901 ± 0.084

UUUAAGCAAUAUUACGCUUU
self-splicing fitness (ln) (30 °C): -3.6 ± 0.35
self-splicing fitness (ln) (37 °C): -2.95 ± 0.23

UUUAAGCAAUAUUACGGAAA
self-splicing fitness (ln) (30 °C): -2.33 ± 0.23
self-splicing fitness (ln) (37 °C): -0.53 ± 0.23

UUUAAGCAAUAUUACGGAGA
self-splicing fitness (ln) (30 °C): -2.18 ± 0.21
self-splicing fitness (ln) (37 °C): -0.727 ± 0.17

UUUAAGCAAUAUUACGGGAG
self-splicing fitness (ln) (30 °C): -1.75 ± 0.089
self-splicing fitness (ln) (37 °C): -1.32 ± 0.1

UUUAAGCAAUAUUACGGGGA
self-splicing fitness (ln) (30 °C): -1.27 ± 0.1
self-splicing fitness (ln) (37 °C): -0.724 ± 0.11

UUUAAGCAAUAUUACGGUUC
self-splicing fitness (ln) (30 °C): -3.56 ± 0.21
self-splicing fitness (ln) (37 °C): -2.47 ± 0.2

UUUAAGCAAUAUUACGUAAC
self-splicing fitness (ln) (30 °C): -3.67 ± 0.29
self-splicing fitness (ln) (37 °C): -2.17 ± 0.19

UUUAAGCAAUAUUACGUAGG
self-splicing fitness (ln) (30 °C): -0.802 ± 0.058
self-splicing fitness (ln) (37 °C): -0.287 ± 0.086

UUUAAGCAAUAUUACGUAGU
self-splicing fitness (ln) (30 °C): -2.62 ± 0.13
self-splicing fitness (ln) (37 °C): -2.13 ± 0.18

UUUAAGCAAUAUUACGUCCU
self-splicing fitness (ln) (30 °C): -1.82 ± 0.2
self-splicing fitness (ln) (37 °C): -1.09 ± 0.15

UUUAAGCAAUAUUACGUGCG
self-splicing fitness (ln) (30 °C): -0.659 ± 0.088
self-splicing fitness (ln) (37 °C): -0.486 ± 0.11

UUUAAGCAAUAUUACGUGCU
self-splicing fitness (ln) (30 °C): -3.09 ± 0.18
self-splicing fitness (ln) (37 °C): -1.41 ± 0.15
